Consider 6 sequences from the supplement of paper PMC5998384.

For data set [1], the system named is HeLa Kyoto. Nature of the data set: thermal stability score vs G1/S (z-score of summed log2 fold changes over temperatures); higher = more thermally stable than in G1/S.
Data set [2] relates to HeLa Kyoto. Nature of the data set: solubility in G1/S (NP-40 vs SDS abundance) (log2 ratio); higher = more soluble. As to conditions: cell cycle stage: G1/S.
Data set [3] relates to HeLa Kyoto. Nature of the data set: solubility change mitosis vs G1/S (difference of NP-40 vs SDS log2 ratios) (log2 ratio difference); higher = more soluble in mitosis.
The subject of data set [4] is HeLa Kyoto. Nature of the data set: melting temperature (median over replicates), in situ; higher = more thermally stable.
The mark [5] stands for this setting: cell cycle stage: early G1 (4.5 h after nocodazole release).
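Throughout, for melting temperature (median over replicates), in situ: HeLa Kyoto cells synchronized by double thymidine or nocodazole block, proteins quantified by TMT10plex mass spectrometry, three independent biological replicates.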
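Throughout, for solubility change mitosis vs G1/S (difference of NP-40 vs SDS log2 ratios): synchronized HeLa Kyoto cells (double thymidine block for G1/S, nocodazole release for mitosis), protein amounts in NP-40 versus SDS lysates quantified by mass spectrometry, three biological replicates.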
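Throughout, for solubility in G1/S (NP-40 vs SDS abundance): HeLa Kyoto cells arrested at G1/S by double thymidine block, proteins quantified by TMT10plex mass spectrometry in mild NP-40 versus SDS extracts, three biological replicates.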
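Throughout, for thermal stability score vs G1/S (z-score of summed log2 fold changes over temperatures): synchronized HeLa Kyoto cells, proteins quantified by TMT10plex mass spectrometry, three biological replicates, mitosis taken 0.5 h after nocodazole release, G1/S directly after double thymidine block.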

Regarding “MLSEVLLVSAPGKVILHGEHAVVHGKVALAVSLNLRTFLRLQPHSNGKVDLSLPNIGIKRAWDVARLQSLDTSFLEQGDVTTPTSEQVEKLKEVAGLPDDCAVTERLAVLAFLYLYLSICRKQRALPSLDIVVWSELPPGAGLGSSAAYSVCLAAALLTVCEEIPNPLKDGDCVNRWTKEDLELINKWAFQGERMIHGNPSGVDNAVSTWGGALRYHQGKISSLKRSPALQILLTNTKVPRNTRALVAGVRNRLLKFPEIVAPLLTSIDAISLECERVLGEMGEAPAPEQYLVLEELIDMNQHHLNALGVGHASLDQLCQVTRARGLHSKLTGAGGGGCGITLLKPGLEQPEVEATKQALTSCGFDCLETSIGAPGVSIHSATSLDSRVQQALDGL [MVK]”, the thermal stability score is -0.0917 with HeLa Kyoto [1] (setting [5]) and 0.34 with HeLa Kyoto [1] (cell cycle stage: mitosis). In addition, in the data set on HeLa Kyoto [2], the “solubility in G1/S (log2)” value was found to be 0.173. Moreover, the “solubility change mitosis (log2)” value with HeLa Kyoto [3] was 0.006. Also, the melting temperature with HeLa Kyoto [4] (cell cycle stage: G1/S) was found to be 53.8 °C; with HeLa Kyoto [4] (cell cycle stage: mitosis) it was 54.3 °C.

Take “MGGVGEPGPREGPAQPGAPLPTFCWEQIRAHDQPGDKWLVIERRVYDISRWAQRHPGGSRLIGHHGAEDATDAFRAFHQDLNFVRKFLQPLLIGELAPEEPSQDGPLNAQLVEDFRALHQAAEDMKLFDASPTFFAFLLGHILAMEVLAWLLIYLLGPGWVPSALAAFILAISQAQSWCLQHDLGHASIFKKSWWNHVAQKFVMGQLKGFSAHWWNFRHFQHHAKPNIFHKDPDVTVAPVFLLGESSVEYGKKKRRYLPYNQQHLYFFLIGPPLLTLVNFEVENLAYMLVCMQWADLLWAASFYARFFLSYLPFYGVPGVLLFFVAVRVLESHWFVWITQMNHIPKEIGHEKHRDWVSSQLAATCNVEPSLFTNWFSGHLNFQIEHHLFPRMPRHNYSRVAPLVKSLCAKHGLSYEVKPFLTALVDIVRSLKKSGDIWLDAYLHQ [FADS3]”: the thermal stability score was -1.31 in the data set on HeLa Kyoto [1] (setting [5]) and -0.774 in the data set on HeLa Kyoto [1] (cell cycle stage: mitosis). In the data set with HeLa Kyoto [2], the “solubility in G1/S (log2)” value was -0.263. The “solubility change mitosis (log2)” value in the data set on HeLa Kyoto [3] came out at 0.0263. The melting temperature was 54.5 °C with HeLa Kyoto [4] (cell cycle stage: G1/S) and 53.9 °C in the data set on HeLa Kyoto [4] (cell cycle stage: mitosis).

As for “MSESLVVCDVAEDLVEKLRKFRFRKETNNAAIIMKIDKDKRLVVLDEELEGISPDELKDELPERQPRFIVYSYKYQHDDGRVSYPLCFIFSSPVGCKPEQQMMYAGSKNKLVQTAELTKVFEIRNTEDLTEEWLREKLGFFH [GMFB]”, the figures for the thermal stability score with HeLa Kyoto [1] (setting [5]) and in the data set on HeLa Kyoto [1] (cell cycle stage: mitosis) were -2.8 and -3.58, respectively. The “solubility in G1/S (log2)” value in the data set on HeLa Kyoto [2] came to 0.3. Further, the “solubility change mitosis (log2)” value in the data set on HeLa Kyoto [3] was 0.123. The values for the melting temperature in the data set on HeLa Kyoto [4] (cell cycle stage: G1/S) and in the data set with HeLa Kyoto [4] (cell cycle stage: mitosis) were 55.4 °C and 55.6 °C, respectively.

On to “MLARAARGTGALLLRGSLLASGRAPRRASSGLPRNTVVLFVPQQEAWVVERMGRFHRILEPGLNILIPVLDRIRYVQSLKEIVINVPEQSAVTLDNVTLQIDGVLYLRIMDPYKASYGVEDPEYAVTQLAQTTMRSELGKLSLDKVFRERESLNASIVDAINQAADCWGIRCLRYEIKDIHVPPRVKESMQMQVEAERRKRATVLESEGTRESAINVAEGKKQAQILASEAEKAEQINQAAGEASAVLAKAKAKAEAIRILAAALTQHNGDAAASLTVAEQYVSAFSKLAKDSNTILLPSNPGDVTSMVAQAMGVYGALTKAPVPGTPDSLSSGSSRDVQGTDASLDEELDRVKMS [STOML2]”, for which the thermal stability score in the data set with HeLa Kyoto [1] (setting [5]) is -3.41; in the data set on HeLa Kyoto [1] (cell cycle stage: mitosis), -3.22. Also, in the data set with HeLa Kyoto [2], the “solubility in G1/S (log2)” value was determined as 0.262. Also, in the data set with HeLa Kyoto [3], the “solubility change mitosis (log2)” value came to 0.0559. The melting temperature in the data set with HeLa Kyoto [4] (cell cycle stage: G1/S) worked out at 56.9 °C; with HeLa Kyoto [4] (cell cycle stage: mitosis), 59.3 °C.

In the case of “MEGPAEWGPEAALGPEAVLRFLAERGGRALHAELVQHFRGALGGEPEQRARARAHFKELVNAVATVRVDPADGAKYVHLKKRFCEGPSEPSGDPPRIQVTAEPEAPDGPAGPEARDRLPDAAAPESLPGQGRELGEGEPPAPAHWPPLSAGARRKNSRRDVQPLPRTPAPGPSEDLELPPHGCEEADRGSSLVGATAQRPARQNLRDLVMGSSPQLKRSVCPGGSSPGSSSGGGRGRGGGDSDSASVASSSAEEESSGGGSVTLDPLEHAWMLSASDGKWDSLEGLLTCEPGLLVKRDFITGFTCLHWAAKHGRQELLAMLVNFANKHQLPVNIDARTSGGYTALHLAAMHGHVEVVKLLVGAYDADVDIRDYSGKKASQYLSRSIAEEIKNLVGALDEGDGESAAGSGGGRWRLSKVLPSHLITYKLSHALEDGGDHHHHHHSAEGWVGGKAKDPGRKASGSSSGRIKPRLNKIRFRTQIVHTTPSFRDPEQPLEGRGEEGVGEERPVKGHSPFTLRPKSNVFG [SOWAHC]”, the figures for the thermal stability score with HeLa Kyoto [1] (setting [5]) and in the data set with HeLa Kyoto [1] (cell cycle stage: mitosis) were 0.128 and -0.236, respectively. Further, in the data set with HeLa Kyoto [2], the “solubility in G1/S (log2)” value was 0.325. Moreover, the “solubility change mitosis (log2)” value with HeLa Kyoto [3] was found to be 0.021. Also, the melting temperature in the data set with HeLa Kyoto [4] (cell cycle stage: G1/S) was 51.2 °C; in the data set with HeLa Kyoto [4] (cell cycle stage: mitosis), 49.7 °C.

On to “MGRRRAPELYRAPFPLYALQVDPSTGLLIAAGGGGAAKTGIKNGVHFLQLELINGRLSASLLHSHDTETRATMNLALAGDILAAGQDAHCQLLRFQAHQQQGNKAEKAGSKEQGPRQRKGAAPAEKKCGAETQHEGLELRVENLQAVQTDFSSDPLQKVVCFNHDNTLLATGGTDGYVRVWKVPSLEKVLEFKAHEGEIEDLALGPDGKLVTVGRDLKASVWQKDQLVTQLHWQENGPTFSSTPYRYQACRFGQVPDQPAGLRLFTVQIPHKRLRQPPPCYLTAWDGSNFLPLRTKSCGHEVVSCLDVSESGTFLGLGTVTGSVAIYIAFSLQCLYYVREAHGIVVTDVAFLPEKGRGPELLGSHETALFSVAVDSRCQLHLLPSRRSVPVWLLLLLCVGLIIVTILLLQSAFPGFL [PREB]”, for which the results for the thermal stability score in the data set on HeLa Kyoto [1] (setting [5]) and in the data set on HeLa Kyoto [1] (cell cycle stage: mitosis) were -0.808 and -1.93, respectively. In addition, the “solubility in G1/S (log2)” value in the data set with HeLa Kyoto [2] was -0.0601. In addition, in the data set with HeLa Kyoto [3], the “solubility change mitosis (log2)” value is -0.103. Besides, the melting temperature was found to be 53.8 °C with HeLa Kyoto [4] (cell cycle stage: G1/S) and 54.1 °C in the data set with HeLa Kyoto [4] (cell cycle stage: mitosis).
